According to patent US20240076343A1 (CEPHALON, published 2024):
Positions count from the first letter of the chain named.

B1: Abz1mod-hIgG4 (antibody, V domains shown)
VH: QVQLVQSGSELKKPGASVKVSCKASGYTFTSYAMHWVRQAPGQGLEWMGYISPFTGRATYAQGFTGRFVFSLDTSVSTAYLQISSLKAEDTAVYYCARDYDYRYYYAMDYWGQGTTVTVSS
VL: EIVLTQSPDFQSVTPKEKVTITCRASQSIPPQFLHWYQQKPDQSPKLLIKAASQRASGVPSRFSGSGSGTDFTLTINSLEAEDAATYYCHQFHSSPLTFGGGTKLEIKR
B2: 2H7-hIgG4-LE (antibody)
heavy: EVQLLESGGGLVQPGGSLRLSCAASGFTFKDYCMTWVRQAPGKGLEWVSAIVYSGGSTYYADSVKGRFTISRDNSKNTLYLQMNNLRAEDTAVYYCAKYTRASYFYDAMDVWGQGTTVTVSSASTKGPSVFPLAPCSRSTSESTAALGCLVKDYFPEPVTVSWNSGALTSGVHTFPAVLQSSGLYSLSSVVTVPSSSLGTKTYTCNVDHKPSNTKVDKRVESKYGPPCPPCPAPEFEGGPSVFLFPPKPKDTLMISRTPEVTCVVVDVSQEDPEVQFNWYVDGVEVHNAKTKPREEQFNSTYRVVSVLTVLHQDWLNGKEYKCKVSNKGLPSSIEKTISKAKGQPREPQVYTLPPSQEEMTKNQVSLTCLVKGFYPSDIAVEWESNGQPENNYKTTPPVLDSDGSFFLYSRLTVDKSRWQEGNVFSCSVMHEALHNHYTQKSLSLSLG
light: EIVLTQSPGTLSLSPGERATLSCRASQSIGKSFLAWYQQKPGQAPRLLIYDASTRAADIPARFSGSGSGTDFTLTISSLEPEDFAVYYCQQYYDWPPLSFGGGTKVEIKRTVAAPSVFIFPPSDEQLKSGTASVVCLLNNFYPREAKVQWKVDNALQSGNSQESVTEQDSKDSTYSLSSTLTLSKADYEKHKVYACEVTHQGLSSPVTKSFNRGEC
B3: 2H7-hIgG4-LAGA (antibody)
heavy: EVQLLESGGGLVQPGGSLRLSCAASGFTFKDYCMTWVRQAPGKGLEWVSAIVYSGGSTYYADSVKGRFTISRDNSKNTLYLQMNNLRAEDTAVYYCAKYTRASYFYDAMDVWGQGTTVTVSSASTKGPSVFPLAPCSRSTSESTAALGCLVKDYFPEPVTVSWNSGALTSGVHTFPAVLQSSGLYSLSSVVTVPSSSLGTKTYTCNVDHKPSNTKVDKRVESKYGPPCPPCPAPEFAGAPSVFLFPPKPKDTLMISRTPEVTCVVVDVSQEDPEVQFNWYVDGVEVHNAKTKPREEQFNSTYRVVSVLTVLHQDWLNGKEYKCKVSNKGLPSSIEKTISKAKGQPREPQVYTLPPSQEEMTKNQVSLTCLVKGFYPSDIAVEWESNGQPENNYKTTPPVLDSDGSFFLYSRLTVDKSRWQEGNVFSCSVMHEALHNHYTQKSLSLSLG
light: B2 light
B4: A2-hIgG4 (antibody, V domains shown)
VH: DVQLVESGGGLVQPGGSLRLSCAASGFTFDISAMSWVRQAPGKGLEWVSTISGSAYSTYYADSVKGRFTISRDNSKSTLYLQMNSLRAEDTAVYYCAREIFSDYWGLGTLVTVSS
VL: QSVLTQPPSASGTPGQRVTISCSGSTSNIGRESVYWYQQLPGTAPKLLIYSNVQRPSGAPNRFSGSKSGTSASLAISGLQSEDEADYYCGTWDDSLNGWVFGGGTKLTVLG
B5: OMC476pE4-hIgG4 (antibody, V domains shown)
VH: DVQLVESGGGVVRPGESLRLSCAASGFTFSTDAMGWVRQAPGEGLEWVSLISGSGYSTYYADSVKGRFTISRDNSKNTLYLQMNSLTAEDTAVYYCAKNSLAFFDYWGLGTLVTVSS
VL: B4 VL with S25G, T26S, Y35N, N52T, V53D, Q54R, A59V, N61D, D94N, S95D
B6: G12-hIgG4 (antibody, V domains shown)
VH: DSLVESGGGLVQPGGSLRLSCAASGFTFDISAMSWVRQAPGKGLEWVSTISGSAYSTYYADSVKGRFTISRDNSKSTLYLQMNSLRAEDTAVYYCAREIFSDYWGLGTLVTVSS
VL: B4 VL with S51L, V53S, A59V, N61D, E84V
B7: D12-hIgG4 (antibody, V domains shown)
VH: B4 VH
VL: B4 VL with S25N, A59V, N61D
B8: OMC.2.C6-hIgG4 (antibody, V domains shown)
VH: EVQLLESGGGLVQPGGSLRLSCTASGFTFSSYEMQWVRQAPGKGLEWVLGITSSSSHIFYADSVKGRFTVSRDNSKNTLYLQMNSLRAEDTAVYYCTKDLNSYYGLDVWGQGTTVTVSS
VL: QSVMTQPPSASGTPGQRVTISCSGSTSNLGNNYVSWYQHLPGTAPKLLIYGNDQRPSGVPDRFSGSKSGTSASLAISGLQSDDEADYYCSSWDASLNVWVFGGGTKLTVLG
B9: Anti-PD-1 clone J110 hIgG1 (antibody, V domains shown)
VH: DVQLQESGPGLVKPSQSLSLTCTVTGHSITSDYAWNWIRQFPGDKLEWMGYISYSGYTTYNPSLKSRVSITRDTSKNQFFLQLNSVTTEDTATYFCARDLDYGPWFAYWGQGTLVTVSA
VL: DIQMTQSPASLSASVGETVTLTCRASENIHNYLAWYQQKQGKSPQLLVYNVKTLADGVPSRFSGSGSGTQYSLKINSLQPEDFGSYYCQHFWSSPWTFGGGTKVEIKR
B10: OMC476pG10-hIgG4 (antibody, V domains shown)
VH: DVQLVESGGGVVRPGGSLRLSCAASGFTFSIYAMSWVRQAPGEGLEWVSHISASGGSTYYADSVKGRFAISRDNSKNTLYLQMNSLRAEDTAVYYCTTNLGSDYWGLGTLVTVSS
VL: QSVLTQPPSASGTPGQRVTISCSGSYSDIGTNYVYWYQQLPGTAPKLLIFATDRRPSGVPDRFSGSKSGTSASLAISGLQSEDEADYYCGTWDDSLNVWVFGGGTKLTVLG
B11: OMC476pH10-hIgG4 (antibody, V domains shown)
VH: B10 VH with M34V
VL: B10 VL
B12: OMC.1.B6-hIgG4 (antibody, V domains shown)
VH: EVQLLESGGGLVQPGGSLRLSCAASGFTFSSNYMSWVRQAPGKGLEWVSAISSSGGTIFYADSVKGRFTISRDNSKNTLYLQMNSLRAEDTAVYYCAKHKWNAVYYDGMDVWGQGTTVTVSS
VL: QSVLTQPPSASGTPGQRVTISCSGSNSNIGRNLVNWYQQLPGTAPKLLIYTIDQRPSGVPDRFSGSKSGTSASLVISGLQSEDEADYYCAAWDGSLNAWVFGGGTKLTVLG
B13: OMC.1.D6-hIgG4 (antibody, V domains shown)
VH: B12 VH with S31D, N32Y, T69I, A103D, G108A
VL: B12 VL with I52V, V75A, Q80A, G94S, A98S
B14: 2A3.H7-hIgG4 (antibody, V domains shown)
VH: EVQLLESGGGLVQPGGSLRLSCAASGFTFKDYCMTWVRQAPGKGLEWVSAIVYSGGSTYYADSVKGRFTISRDNSKNTLYLQMNNLRAEDTAVYYCAKYTRASYFYDAMDVWGQGTTVTVSS
VL: EIVLTQSPGTLSLSPGERATLSCRASQSIGRSFLAWYQQKPGQAPRLLIYDASTRAADIPARFSGSGSGTDFTLTISSLEPEDFAVYYCQQYYDWPPLSFGGGTKVEIKR
B15: 1H9-hIgG4 (antibody, V domains shown)
VH: B14 VH with A23V, A24G, T28N, F29L, N85S, A102G
VL: B14 VL with A61D, S77N, S78R, S99T
B16: 1D5-hIgG4 (antibody, V domains shown)
VH: B14 VH with A23V, A24G, T28N, N85S, A102G
VL: B14 VL with A57T, A61D, D71E, E80Q, P81S, S99T

Biological target: T1, recombinant His-tagged human PD-1 (Acro Biosystems) (human, UniProt Q15116 25-167)
T1 construct: His-tagged; also called hPD-1
T1 sequence (Q15116 25-167 limits assumed): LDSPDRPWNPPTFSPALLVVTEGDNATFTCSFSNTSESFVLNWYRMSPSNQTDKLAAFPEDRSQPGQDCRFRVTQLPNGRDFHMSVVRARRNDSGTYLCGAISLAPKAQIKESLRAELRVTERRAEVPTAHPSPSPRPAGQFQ
Test: SPR Carterra LSA;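 note: antibodies or fusion proteins amine-coupled on an HC30M chip, soluble His-tagged human or cynomolgus PD-1 titrated over them, non-regenerative kinetics, constants fitted from titration curves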
Method: Surface plasmon resonance binding analysis was performed using a high-throughput SPR Carterra® LSA™ to determine binding affinities of anti-hPD-1 antibodies and anti-hPD-1-attenuated hIL-2 fusion proteins. Proteins were diluted to 2 or 10 μg/mL in 10 mM sodium acetate pH 4.5 containing 0.01% Tween-20 and coupled to a HC30M (Carterra Bio) chip using sulpho-N-hydroxysuccinimide/1-ethyl-3-(3-dimethylamino) propyl carbodiimide (sulpho-NHS/EDC) coupling chemistry and blocked with ethanolamine. A non-regenerative kinetic coupling process was used to determine binding kinetics to commercially sourced recombinant His-tagged human PD-1 and His-tagged cynomolgus PD-1 (Acro Biosystems).
The association constants (kₐ), dissociation constants (kd), and equilibrium constants (KD) of various anti-hPD-1 antibodies and anti-hPD-1 antibody-attenuated hIL-2 fusion proteins binding to recombinant human or cynomolgus PD-1 proteins was determined from the titration curves and the Carterra Kinetics software. The maximal feasible SPR signal generated (Rₘₐₓ) and residual standard deviation (Res SD) was also calculated.

| Kd [nM] | koff [s⁻¹] | kon [M⁻¹ s⁻¹] | Binder |
| --- | --- | --- | --- |
| 0.426 | 6e-05 | 140000 | B1 |
| 3.1 | 0.00082 | 260000 | B2 |
| 5.3 | 0.00091 | 170000 | B3 |
| 36 | 0.0013 | 37000 | B4 |
| 11 | 0.00088 | 79000 | B5 |
| 50 | 0.0026 | 53000 | B6 |
| 8.1 | 0.00046 | 57000 | B7 |
| 12 | 0.00066 | 57000 | B8 |
| 10 | 0.001 | 100000 | B9 |
| 44 | 0.0041 | 93000 | B10 |
| 64 | 0.0065 | 100000 | B11 |
| 52 | 0.004 | 77000 | B12 |
| 42 | 0.0017 | 41000 | B13 |

Biological target: T2, recombinant His-tagged cynomolgus PD-1 (Acro Biosystems) (cynomolgus, UniProt B0LAJ3 25-170)
T2 construct: His-tagged; also called Cyno PD-1; not shown: His tag (and any linker) of the Acro Biosystems product
T2 sequence (B0LAJ3 entry or part of it limits assumed): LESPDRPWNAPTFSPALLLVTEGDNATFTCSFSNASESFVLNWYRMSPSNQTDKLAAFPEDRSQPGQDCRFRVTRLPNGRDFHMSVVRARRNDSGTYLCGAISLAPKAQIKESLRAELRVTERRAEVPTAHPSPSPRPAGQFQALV
Test: SPR Carterra LSA;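 note: antibodies or fusion proteins amine-coupled on an HC30M chip, soluble His-tagged human or cynomolgus PD-1 titrated over them, non-regenerative kinetics, constants fitted from titration curves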

| Kd [nM] | koff [s⁻¹] | kon [M⁻¹ s⁻¹] | Binder |
| --- | --- | --- | --- |
| 3.7 | 0.00062 | 170000 | B1 |
| 7.1 | 0.001 | 140000 | B2 |
| 12 | 0.0011 | 91000 | B3 |
| 589 | 0.04 | 68000 | B4 |
| 331 | 0.035 | 100000 | B5 |
| 754 | 0.065 | 86000 | B6 |
| 272 | 0.016 | 59000 | B7 |
| 13 | 0.00074 | 55000 | B8 |
| 1200 | 0.05 | 41000 | B9 |
| 487 | 0.06 | 120000 | B10 |
| 480 | 0.059 | 120000 | B11 |
| 51 | 0.0044 | 88000 | B12 |
| 694 | 0.04 | 58000 | B13 |

Biological target: human PD-1 on Jurkat Effector cells of the PD-1/PD-L1 blockade bioassay (Promega, Cat #J1255) (human, UniProt Q15116 25-288)
Sequence (Q15116 25-288): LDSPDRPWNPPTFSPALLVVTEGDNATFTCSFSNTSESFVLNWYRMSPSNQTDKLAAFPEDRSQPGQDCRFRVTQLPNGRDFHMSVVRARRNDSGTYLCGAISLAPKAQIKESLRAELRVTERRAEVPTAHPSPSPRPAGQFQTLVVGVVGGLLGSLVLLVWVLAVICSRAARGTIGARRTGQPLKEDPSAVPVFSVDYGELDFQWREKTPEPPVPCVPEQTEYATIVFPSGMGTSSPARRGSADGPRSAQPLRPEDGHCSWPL
Test: cell-based or functional assay

| luminescence (RLU), PD-1/PD-L1 blockade bioassay [RLU] | Binder |
| --- | --- |
| ~3000 | B14 |
| ~3000 | B15 |
| ~3000 | B16 |
